Source: paper PMC3903627

Target: Luciferase-ArgBP2 P1 and EYFP-ArgBP2 P1 (BRET pair)
Assay: BRET
Conditions: HEK293T cells, one representative experiment, read off a plot

response (0.10 µg YFP fused protein, parent: est. 510): 190 mBu
response (0.20 µg YFP fused protein, parent: est. 670): 310 mBu
response (0.30 µg YFP fused protein, parent: est. 740): 390 mBu
response (0.40 µg YFP fused protein, parent: est. 790): 490 mBu
response (0.50 µg YFP fused protein, parent: est. 790): 570 mBu
Substance: Luciferase-ArgBP2 WT and EYFP-ArgBP2 WT (BRET pair) P497A; P500A
